The target of assay [1] is T1, full-length human kinesin-1 heavy chain (KIF5B) (human, UniProt P33176 1-963, LD555, LD655 or Alexa488 label (imaging assays)).
T1 sequence (looked up): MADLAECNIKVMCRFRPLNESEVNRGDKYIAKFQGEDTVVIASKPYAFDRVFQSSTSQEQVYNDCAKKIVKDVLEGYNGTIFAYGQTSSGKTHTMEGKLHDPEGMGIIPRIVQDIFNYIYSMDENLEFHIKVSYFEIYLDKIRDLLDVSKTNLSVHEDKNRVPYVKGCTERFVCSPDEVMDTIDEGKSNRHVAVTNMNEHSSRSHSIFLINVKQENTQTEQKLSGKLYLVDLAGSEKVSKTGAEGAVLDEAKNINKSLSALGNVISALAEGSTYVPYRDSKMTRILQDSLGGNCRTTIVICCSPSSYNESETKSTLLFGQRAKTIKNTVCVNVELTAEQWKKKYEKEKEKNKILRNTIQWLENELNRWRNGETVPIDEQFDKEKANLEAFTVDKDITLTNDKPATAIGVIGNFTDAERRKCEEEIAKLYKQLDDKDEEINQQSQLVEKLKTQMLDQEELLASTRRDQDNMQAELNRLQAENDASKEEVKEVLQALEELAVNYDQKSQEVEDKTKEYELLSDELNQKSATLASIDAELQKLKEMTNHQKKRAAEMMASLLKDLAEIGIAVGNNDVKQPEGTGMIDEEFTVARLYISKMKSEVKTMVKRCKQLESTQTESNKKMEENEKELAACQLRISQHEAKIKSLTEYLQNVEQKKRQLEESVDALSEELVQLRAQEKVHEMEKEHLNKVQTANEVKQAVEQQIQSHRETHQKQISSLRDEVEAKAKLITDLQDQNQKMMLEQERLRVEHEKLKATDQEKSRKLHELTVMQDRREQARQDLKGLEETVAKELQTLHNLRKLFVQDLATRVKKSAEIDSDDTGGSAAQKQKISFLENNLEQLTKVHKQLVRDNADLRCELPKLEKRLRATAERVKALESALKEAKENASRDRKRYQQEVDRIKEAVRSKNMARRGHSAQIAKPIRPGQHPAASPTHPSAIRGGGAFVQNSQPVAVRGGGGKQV
Description: single-molecule colocalisation on microtubules.

In assay [2] the target is T1, full-length human kinesin-1 heavy chain …. The assay can be described thus: cell-based or functional assay.

B1: TRAK2^1-400 (domain or fragment, human, UniProt O60296 1-400, looked up)
chain: MSQSQNAIFTSPTGEENLMNSNHRDSESITDVCSNEDLPEVELVSLLEEQLPQYRLKVDTLFLYENQDWTQSPHQRQHASDALSPVLAEETFRYMILGTDRVEQMTKTYNDIDMVTHLLAERDRDLELAARIGQALLKRNHVLSEQNESLEEQLGQAFDQVNQLQHELCKKDELLRIVSIASEESETDSSCSTPLRFNESFSLSQGLLQLEMLQEKLKELEEENMALRSKACHIKTETVTYEEKEQQLVSDCVKELRETNAQMSRMTEELSGKSDELIRYQEELSSLLSQIVDLQHKLKEHVIEKEELKLHLQASKDAQRQLTMELHELQDRNMECLGMLHESQEEIKELRSRSGPTAHLYFSQSYGAFTGESLAAEIEGTMRKKLSLDEESSLFKQKAQ
modifications: LD555 or LD655 dye on the SNAP tag
In the case of B1, the binding result in assay [1] is “binds”.

B2: full-length TRAK1^1-953 (natural protein, human, UniProt Q9UPV9 1-953, looked up)
chain: MALVFQFGQPVRAQPLPGLCHGKLIRTNACDVCNSTDLPEVEIISLLEEQLPHYKLRADTIYGYDHDDWLHTPLISPDANIDLTTEQIEETLKYFLLCAERVGQMTKTYNDIDAVTRLLEEKERDLELAARIGQSLLKKNKTLTERNELLEEQVEHIREEVSQLRHELSMKDELLQFYTSAAEESEPESVCSTPLKRNESSSSVQNYFHLDSLQKKLKDLEEENVVLRSEASQLKTETITYEEKEQQLVNDCVKELRDANVQIASISEELAKKTEDAARQQEEITHLLSQIVDLQKKAKACAVENEELVQHLGAAKDAQRQLTAELRELEDKYAECMEMLHEAQEELKNLRNKTMPNTTSRRYHSLGLFPMDSLAAEIEGTMRKELQLEEAESPDITHQKRVFETVRNINQVVKQRSLTPSPMNIPGSNQSSAMNSLLSSCVSTPRSSFYGSDIGNVVLDNKTNSIILETEAADLGNDERSKKPGTPGTPGSHDLETALRRLSLRRENYLSERRFFEEEQERKLQELAEKGELRSGSLTPTESIMSLGTHSRFSEFTGFSGMSFSSRSYLPEKLQIVKPLEGSATLHHWQQLAQPHLGGILDPRPGVVTKGFRTLDVDLDEVYCLNDFEEDDTGDHISLPRLATSTPVQHPETSAHHPGKCMSQTNSTFTFTTCRILHPSDELTRVTPSLNSAPTPACGSTSHLKSTPVATPCTPRRLSLAESFTNTRESTTTMSTSLGLVWLLKERGISAAVYDPQSWDRAGRGSLLHSYTPKMAVIPSTPPNSPMQTPTSSPPSFEFKCTSPPYDNFLASKPASSILREVREKNVRSSESQTDVSVSNLNLVDKVRRFGVAKVVNSGRAHVPTLTEEQGPLLCGPPGPAPALVPRGLVPEGLPLRCPTVTSAIGGLQLNSGIRRNRSFPTMVGSSMQMKAPVTLTSGILMGAKLSKQTSLR
modifications: LD655 dye on the SNAP tag (imaging assays)
Regarding B2, in assay [1], the binding result is listed as “binds”.

B3: TRAK2^1-360 (domain or fragment, human, UniProt O60296 1-360, looked up)
chain: MSQSQNAIFTSPTGEENLMNSNHRDSESITDVCSNEDLPEVELVSLLEEQLPQYRLKVDTLFLYENQDWTQSPHQRQHASDALSPVLAEETFRYMILGTDRVEQMTKTYNDIDMVTHLLAERDRDLELAARIGQALLKRNHVLSEQNESLEEQLGQAFDQVNQLQHELCKKDELLRIVSIASEESETDSSCSTPLRFNESFSLSQGLLQLEMLQEKLKELEEENMALRSKACHIKTETVTYEEKEQQLVSDCVKELRETNAQMSRMTEELSGKSDELIRYQEELSSLLSQIVDLQHKLKEHVIEKEELKLHLQASKDAQRQLTMELHELQDRNMECLGMLHESQEEIKELRSRSGPTAHL
modifications: LD555 or LD655 dye on the SNAP tag (imaging assays)
On to B3, for which the “landing rate of kinesin/TRAK2 1-360 complexes, increase by 50 nM MAP7” value in assay [2] came to 2 fold.

B4: TRAK1^1-360 (domain or fragment, human, UniProt Q9UPV9 1-360, looked up)
chain: MALVFQFGQPVRAQPLPGLCHGKLIRTNACDVCNSTDLPEVEIISLLEEQLPHYKLRADTIYGYDHDDWLHTPLISPDANIDLTTEQIEETLKYFLLCAERVGQMTKTYNDIDAVTRLLEEKERDLELAARIGQSLLKKNKTLTERNELLEEQVEHIREEVSQLRHELSMKDELLQFYTSAAEESEPESVCSTPLKRNESSSSVQNYFHLDSLQKKLKDLEEENVVLRSEASQLKTETITYEEKEQQLVNDCVKELRDANVQIASISEELAKKTEDAARQQEEITHLLSQIVDLQKKAKACAVENEELVQHLGAAKDAQRQLTAELRELEDKYAECMEMLHEAQEELKNLRNKTMPNTTS
modifications: LD555 or LD655 dye on the SNAP tag (imaging assays)
As for B4, in assay [2], the “landing rate of kinesin on MTs with TRAK1 1-360 against kinesin alone” value worked out at 1.5 fold and the “landing rate of kinesin/TRAK1 1-360 complexes, increase by 50 nM MAP7” value is more than 7 fold.

B5: full-length TRAK2^1-914 (natural protein, human, UniProt O60296 1-914, looked up)
chain: MSQSQNAIFTSPTGEENLMNSNHRDSESITDVCSNEDLPEVELVSLLEEQLPQYRLKVDTLFLYENQDWTQSPHQRQHASDALSPVLAEETFRYMILGTDRVEQMTKTYNDIDMVTHLLAERDRDLELAARIGQALLKRNHVLSEQNESLEEQLGQAFDQVNQLQHELCKKDELLRIVSIASEESETDSSCSTPLRFNESFSLSQGLLQLEMLQEKLKELEEENMALRSKACHIKTETVTYEEKEQQLVSDCVKELRETNAQMSRMTEELSGKSDELIRYQEELSSLLSQIVDLQHKLKEHVIEKEELKLHLQASKDAQRQLTMELHELQDRNMECLGMLHESQEEIKELRSRSGPTAHLYFSQSYGAFTGESLAAEIEGTMRKKLSLDEESSLFKQKAQQKRVFDTVRIANDTRGRSISFPALLPIPGSNRSSVIMTAKPFESGLQQTEDKSLLNQGSSSEEVAGSSQKMGQPGPSGDSDLATALHRLSLRRQNYLSEKQFFAEEWQRKIQVLADQKEGVSGCVTPTESLASLCTTQSEITDLSSASCLRGFMPEKLQIVKPLEGSQTLYHWQQLAQPNLGTILDPRPGVITKGFTQLPGDAIYHISDLEEDEEEGITFQVQQPLEVEEKLSTSKPVTGIFLPPITSAGGPVTVATANPGKCLSCTNSTFTFTTCRILHPSDITQVTPSSGFPSLSCGSSGSSSSNTAVNSPALSYRLSIGESITNRRDSTTTFSSTMSLAKLLQERGISAKVYHSPISENPLQPLPKSLAIPSTPPNSPSHSPCPSPLPFEPRVHLSENFLASRPAETFLQEMYGLRPSRNPPDVGQLKMNLVDRLKRLGIARVVKNPGAQENGRCQEAEIGPQKPDSAVYLNSGSSLLGGLRRNQSLPVIMGSFAAPVCTSSPKMGVLKED
modifications: LD655 dye on the SNAP tag (imaging assays)
With B5, the binding result in assay [1] is “binds”.

The record behind these values is publication doi:10.1101/2021.07.30.454553 (bioRxiv, 2021).
